{"source": "paper PMC8551160", "about": "“Structure of PDE3A–SLFN12 complex and structure-based design for a potent apoptosis inducer of tumor cells” (Nature Communications, 2021)", "molecular_target": "the molecule itself", "test": "cryo-EM structure; PDE3A-SLFN12 (K213R) complex purified from nauclefine-treated HeLa cells; single-particle, C2 symmetry, 3.2 Å", "data": [{"protein": "phosphodiesterase 3A (PDE3A), endogenous (enzyme, human (endogenous in HeLa), UniProt Q14432 1-1141, looked up, PDE3A, human, endogenous in HeLa cells; appeared as its full length in the purification; only the catalytic domain K669-Q1102 is resolved in the cryo-EM maps; the purified band is called full length; It is a homodimer in the complex structures; source: endogenous, HeLa; in lysate (co-IP); co-purified with tagged SLFN12 by Flag-HA tandem pull-down (cryo-EM)) MAVPGDAARVRDKPVHSGVSQAPTAGRDCHHRADPASPRDSGCRGCWGDLVLQPLRSSRKLSSALCAGSLSFLLALLVRLVRGEVGCDLEQCKEAAAAEEEEAAPGAEGGVFPGPRGGAPGGGARLSPWLQPSALLFSLLCAFFWMGLYLLRAGVRLPLAVALLAACCGGEALVQIGLGVGEDHLLSLPAAGVVLSCLAAATWLVLRLRLGVLMIALTSAVRTVSLISLERFKVAWRPYLAYLAGVLGILLARYVEQILPQSAEAAPREHLGSQLIAGTKEDIPVFKRRRRSSSVVSAEMSGCSSKSHRRTSLPCIPREQLMGHSEWDHKRGPRGSQSSGTSITVDIAVMGEAHGLITDLLADPSLPPNVCTSLRAVSNLLSTQLTFQAIHKPRVNPVTSLSENYTCSDSEESSEKDKLAIPKRLRRSLPPGLLRRVSSTWTTTTSATGLPTLEPAPVRRDRSTSIKLQEAPSSSPDSWNNPVMMTLTKSRSFTSSYAISAANHVKAKKQSRPGALAKISPLSSPCSSPLQGTPASSLVSKISAVQFPESADTTAKQSLGSHRALTYTQSAPDLSPQILTPPVICSSCGRPYSQGNPADEPLERSGVATRTPSRTDDTAQVTSDYETNNNSDSSDIVQNEDETECLREPLRKASACSTYAPETMMFLDKPILAPEPLVMDNLDSIMEQLNTWNFPIFDLVENIGRKCGRILSQVSYRLFEDMGLFEAFKIPIREFMNYFHALEIGYRDIPYHNRIHATDVLHAVWYLTTQPIPGLSTVINDHGSTSDSDSDSGFTHGHMGYVFSKTYNVTDDKYGCLSGNIPALELMALYVAAAMHDYDHPGRTNAFLVATSAPQAVLYNDRSVLENHHAAAAWNLFMSRPEYNFLINLDHVEFKHFRFLVIEAILATDLKKHFDFVAKFNGKVNDDVGIDWTNENDRLLVCQMCIKLADINGPAKCKELHLQWTDGIVNEFYEQGDEEASLGLPISPFMDRSAPQLANLQESFISHIVGPLCNSYDSAGLMPGKWVEDSDESGDTDDPEEEEEEAPAPNEEETCENNESPKKKTFKRRKIYCQITQHLLQNHKMWKKVIEEEQRLAGIENQSLDQTPQSHSSEQIQAIKEEEEEKGKPRGEEIPTQKPDQ", "values": [{"measurement": "stoichiometry N", "result": 2}]}]}
